Columns and labels:
HIV infection of T cells = details: cited from earlier work
[1] = at concentrations of 5 μM or less; cited from earlier work
[2] = Thermal stability (Tm) by CD signal at 222 nm; assay type: physicochemical; details: at 10 μM
Experimental: (§1) Helicity was assessed by circular dichroism (“CD”) as follows. Briefly, CD spectra were obtained using a spectrometer equipped with a thermoelectric temperature controller. The spectra was obtained at 25° C. with 0.5 nanometer (nm) steps from 200 to 260 nm, with a 1.5 nm bandwith, and a typical averaging time of 4 seconds/step. After the cell/buffer blank was subtracted, spectra were smoothed using a third-order least-squares polynomial fit with a conservative window size to give random residuals. Raw ellipticity values were converted to mean residue ellipticity using standard methods, and plotted was the wavelength (from 200 to 260 nm) versus [θ]×10^−3 (degrees cm^2/dmol). Percent helicity values were then calculated using standard methods. Assessment of thermal stability was performed by monitoring the change in CD signal at 222 nm as temperature was raised in 2° C. steps, with 1 minute equilibration times. The thermal stability for each sample (e.g., synthetic peptide) was represented by the transition temperature (Tm) determined by the derivative method.

HIV IIIB = assay type: cell-based, HIV-1; details: for Antiviral activity against HIV IIIB IC50: 50% reduction in infectious virus titer; for Antiviral activity against HIV IIIB IC90: 90% reduction in infectious titer
[3] = system: HR2 peptide (SEQ ID NO:33) derived from the HR2 region of HIV-1 gp41; experiment: HR2 peptide binding, fluorescence polarization assay; details: ability to complex with HR2 peptide denoted as yes
Source text: These include a protein chip assay (using Biacore analysis) in which surface plasmon resonance is used to detect the binding, and kinetics thereof, between a synthetic peptide and an HR2 peptide; and a fluorescence polarization assay. In the fluorescence polarization assay, a detectable moiety comprising a fluorescent dye (e.g., rhodamine and/or fluorescein) was used to label HR2 peptide, and the assay was then allowed to proceed under sufficient conditions and for a sufficient period of time for labeled peptide to bind to HR1 peptide, or synthetic peptide (or trimer formed therefrom).

[4] = Helicity by circular dichroism; assay type: physicochemical; details: at 10 μM, 25° C.
Experimental: as §1

[5] = Oligomerization state by sedimentation equilibrium (analytical ultracentrifuge); assay type: physicochemical; details: in solution, 4° C.
Experimental: Oligomerization state was assessed by using methods standard in the art for performing sedimentation equilibrium experiments and for analysis of the resultant data. In that regard, sedimentation equilibrium experiments were performed over a concentration range of synthetic peptide (1 μM to […]) as follows. Briefly, six-channel cells (12 mm optical path length) were used with an An-60 Ti rotor operated at 13,500 rpm, 18,000 rpm, 22,000 rpm, and 35,000 rpm) in an analytical ultracentrifuge at 4° C. The cell radii were scanned using 0.001 cm steps with 10 averages/scan at 3 different wavelengths (235 nm, 240 nm, 280 nm). Data obtained with solutions containing synthetic peptide was analyzed using a single species model to determine a weight-averaged molecular weight (MW). Diagnostic plots of MW/MW0 vs. rpm/rpm0 and MW vs. radial concentration were used to test for sample homogeneity. When systemic residuals or a MW higher than monomer molecular weight indicated the presence of self-association, associative models were investigated. The suitability of a model (goodness of fit) was judged by the trends observed in the residuals.

[6] = biological target: HR2 peptide having the amino acid sequence of SEQ ID NO:33 (HIV-1); experiment: surface plasmon resonance (Biacore protein chip assay)

Molecule | 50% effective concentration (EC50), blocked infection of T cells (HIV infection of T cells) | Oligomerization state in solution [1] | Stability Tm [2] | Antiviral activity against HIV IIIB IC50 (HIV IIIB) | Antiviral activity against HIV IIIB IC90 (HIV IIIB) | HR2 peptide binding [3] | Helicity [4] | Oligomerization [5] | Kd [6]
DP107: HR1 peptide, also known as T-21, a synthetic peptide having the amino acid sequence of SEQ ID NO:2 (NNLLRAIEAQQHLLQLTVWGIKQLQARILAVERYLKDQ) | 1 mg/L | monomer/dimer/tetramer equilibrium |  |  |  |  |  |  | 
SEQ ID NO: 38: Same as SEQ ID NO:32 except substitutions at 27, 34, 41, 48 and 23, 30, 44; Asp and Gln added to C-terminus (QARQLLSGIVQQQNNLLRAIEATQHAVQALVWGVKQLQARVLALERYIKDQ) |  |  | 90 °C | 0.18 mg/L | 0.88 mg/L | Yes | 79% | Trimer* | 
SEQ ID NO: 39: Same as SEQ ID NO:32 except substitutions at 6, 20, 41, 48 and 9, 16, 44; Asp and Gln added to C-terminus (QARQLVSGLVQQQNNILRALEAQQHALQATVWGIKQLQARVLALERYIKDQ) |  |  | 68 °C | 0.26 mg/L | 1.20 mg/L | Yes | 63% | Trimer* | 
QARQLVSGLVQQQNNILRALEATQHAVQALVWGVKQLQARVLALERYIK (modifications not checked) [synthetic peptide having the amino acid sequence of SEQ ID NO:35] |  |  |  |  |  |  |  |  | 0.0218 µM
